According to the nanobody polyreactivity screen of Harvey et al. (2022):

Assay: yeast display, Sf9 membrane polyspecificity reagent, FACS + sequencing; frameworks hold sequencing errors
Method in brief: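 Galactose-induced (36–48 hours) yeast carrying a synthetic nanobody display library were exposed to 10% biotinylated, detergent-solubilized Sf9 membrane reagent at 4 °C for 1 hour. FACS followed streptavidin microbead enrichment, using low and high (top ~1%) gates for expression (anti-HA) and reagent binding (streptavidin). Colony PCR, MiSeq 2 × 250 sequencing and CDR-length filtering followed. Labels for polyreactivity reflect the gate of origin.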

Sequence | polyreactivity (PSR sort gate)
QVQLVESGGGLVQAGGSLRLSCAASGRIFRVNAMGWYRQAPGKERELVAAINFSGTSTYYADSVKGRFTISRDNAKNTVYLQMNSLKPEDTAVYYCNALTTSNSGRFYYWGQGTQVTVSS | low polyreactivity
QVQLVESGGGLVQAGGSLRLSCAASGLIIPYYAMGWSRQAPGKERELVAGITSDGSTNYADSVMGRFTISRDNAKIIVYLQMYSLKPVDTAVYYCAKEQGLYSVSPYDYWGQGTQVSVSS | low polyreactivity
QVQLVESGGGLVQARGSLRLSCAPSGFIFDVYAMGWYRQAPGKERELVAAISSSGGRTYYADSVKGRFTISRDNAKNTVYLQMNSLKPEDTAVYYCAAKTDSRTKVYTADYWGQGTQVTVSS | high polyreactivity
QVQLVESGGGLVQAGGSLRLSCDDSGSTFVINDMGWYRQAPGKERELVAAITWGSGSTSYADSVKGRCTISRDNAKNTVYGQMISLKPEDTEVYYCAADVYLGLFGYYAEYNDYWGQGTQVTVSS | low polyreactivity
QVQLVESGGGLVQAGGSLRLSCAASGRTFGRNAMGWYRQAPGKERELVAAISSSGGRTYYADSVKGRFTISRDNAKNTVYLQMNSLKPEDTAVYYCNALTYYRDYWGQGTQVTVSS | high polyreactivity
QVQHVESGGGLVQAGGSLRLSCAASGITFGRNTKGWYRQAPGKERELVAAIDSGGNTYADSVKGRFTISRDNAKNTVYLQMNSLKPEDTAVYYCAVDGGEFSSYGYWGQGTQVTVSS | low polyreactivity
QVQLVESGGGLVQAGGSLRLSCAASGRIFYSNTMGWYRQAPGKERELVARIDTGGGSTYADSVKGRFTISRDNAKNTVYLQMNSLKPEDTAVYYCAKTIAVNTWYYYWGQGTQVTVSS | low polyreactivity
QVQLVESGGGLVQAGGSLRLSCAASGGTIGWYAMGWYRQAPGKERELVAAITSSGGTTFYADSVKGRFTISRDNAKNTVYLQMNSLKPEDTAVYYCAKRGKRPTRYKLGKYDYWGQGTQVTVSS | high polyreactivity
QVQLVESGGGLVQAGGSLRLSCAASGRIFGRYTMGWYRQAPGKERELVAGITSSGGRTYYADSVKGRFTISRDNANNTVYLQMNSLKPEDTAVYYCAAKRWSVPSLYNYWGQGTQVTVSS | high polyreactivity
HVQLVESGGGLVQAGGSLRLSCAASGRIFGYNAMGWYRQAPGKEREFVATITYNDGSTYYADSVKGRFTMSRDNAKNTVYLQMNSLKPEDTAVYYCAADLIWTVYGWKYDYWGQGTHVTVSS | low polyreactivity
QVQLVESGGGLVQAGGSLRLSCAASGFIFSGYAMGWYRQAPGKERELVAAIRWSTGSTYYADSVKGRFTISRDNAKNTVYLQMNSLKPEDTAVYYCNAYRYQWAQSTEYDYWGQGTQVTVSS | high polyreactivity
QVQLVESGGGLVQAGGSLRLSCAASASILVRYAMVCYRQAPGKKREMVSAITATSGGTYYADSVKGRFTFSLDNAKNTVYLQMYSLKPEDTAVYYCNADGGSGAYLDLTITDYDYWGQGTQVTVSS | low polyreactivity
QVQLVESGGGLVQAGGSLRLSSAPSGRTFGVYAMGWYRQAPGKERELVAAISATGGSTYYADSVKGRFTISRDNAKNTVYLQMNSLKPEDTAVYYCARGGTTLYWGQGTQVTVSS | high polyreactivity
QVQLVESGGGLVQAGGSLRLSCAASGSTIPDYTMGWYRQAPGKEREFVAAISRIGGTYYADSVKGRFSISRDNAKNTVYLQMNSLKPEDTAVYSCNADPQGLSGRYHGFDYWGQGTQVTVSS | low polyreactivity
QVQLVESGGGLVQAGGSLRLSCAASGITFYVYAMGWYRQAPGKEREFVAAISTRDGTTYADSLKGRFTISRDNAKNTVYLQMNSLKPEDTAVYYCAAAYYYDGQQGDFDYWGQGTQVTVSS | low polyreactivity
QVQLVESGGGLVQAGGSLRLSCAASGGIFGYYAMGWYRQAPGKERELVAAISYSGGSTYADSVKGRFTISRDNAKNTVYLQMNSLKPEDTAVFYCAARVSSVTRSGFGYWGQGTQVTVSS | high polyreactivity
QVQLQESGGGLMQAGGSQRLSCAASGSISYYSDMGWYRQSPGKEREFVAGIGYGTTTNYADSVKGRFTTSRDNAKNTVYLQMISMKPEDTAVYYCAAYQGNGYEFYYWGQGTQVTVRS | low polyreactivity
QVQLVESGGGLVQAGGSLRLSCAASGSTSSVNAMGWYRQAPGKEREFVATISFGGGRRYYADSVKGRFTISRDNAKNTVYLQMNSLKPEDTAVYYCAAVGSRWFSQTWRDYWGQGTQVTVSS | high polyreactivity
QVQLVESGGGLVQAGGSLRLSCDASGSIFTPYAMGWYRQAPGKERELVAAINWNGGRTYYADSVKGRFTISRDNAKNRVYLQMNCLKPEDTAVYYCFLYYWANYPYNYWGQGTQVNVSS | low polyreactivity
QVQLVESGGGLVQAGGSLRLSCAASGSIFFYYAMGWYRQAPGKERELVAAITGSGGSTYYADSVKGRFTISRDNAKNTVYLQMNSLKPEDTAVYSCAADRTVRAVYYGYGYWGQGTQVTVSS | low polyreactivity
QVQLVESGGGLDQAGGSLRLSCAASGSIFSHYAMGWYRQAPGKERELVAAISRSGGSTYYADSVKGRFTISRDNAKNTVYLQMNSLKPDDTAVYYCSKEGDSGYWFDYWGQGTQVTVSS | low polyreactivity
QVQLVESGGGLLQAGGSLRLSCAASGSIFESYAMGWYRQAPGKERELVAAITSSGDSTYYADSVKGRFTISRDNAKNTVYLQMNSLKPEDTAVYYCAKRVPTYISTAEWGSRYDYWGQGTQVTVSS | low polyreactivity

Sequence | polyreactivity (PSR sort gate)
QVQLVESGGGLVQAGGSLRLSCAASGRIFVHYAMGWYRQAPGKERELVAAITSGSSTNYADSVKGRFTISRDNAKNTVYLQMNSLKPEDTAVYYCAADYSVHLVRDRWFDYWGQGTQVTVSS | low polyreactivity
QVQLVESGGGLVQAGGSLRLSCAASGSIFRYNTMGWYRQATGKERELDATITRRGGSTYYADSVKGRFTISRDNAKNTVYLQMNSLKPEDTAVYYCNADNFGGPFNYWGQGTQVTVSS | low polyreactivity
QVQLVESGGGLVQAGGSLRLSCAASGITFPDYDMGWYRQAPGKERELVAAITYRSGSTYYADSVKGRFTISRDNAKNTVYLQMNSLKPEDTAVYYCNKYGQVPGYFSLDYWGQGTQVTVSS | high polyreactivity
QVQLVESGGGLVQAGGSLRLSCAASGRTFRYNTMGWYRQAPGKERELVAITYRGGSTYADSVKGRFTISRDNAKNTVYLQMNSLKPEDTAVYYCAKVVNWCRGYGGTDHYYWGQGTQVTVSS | high polyreactivity
QVQLVESGGGLVQAGGSLSLSCAASGSTMATYTMGWYRQAPGKERELVAAISFGGSTYYADSVKGRFTISRDNAKNTVYLQMNSLKPEDTAVYYCAVYGDSYWGAYYYSDGYWGQGTQVTVSS | low polyreactivity
QVQLVESGGGLVQAGGSLRLSCAASGFIFKAYAMGWYRHAPGKERELVAAITSSGGRTYDADSVKGRFTISRDNAKNTVYLQKNSLKPEDTAVYYCNARGVLRTSLYRYDYWGQGTQVTVSS | high polyreactivity
QVQLVESGGGLVQAGGSLRLSCAASGSTFVKYTMGWYRPAPGKERELVAAIRRRGGSTYYADSVKGRFTISRDNAKNTVYLQMNSLKPEDTAVYYCATAGQGAFWGQGTQVTVSS | high polyreactivity
QVQLVESGGGLVQAGGSLRLSCAASGRTFKYYAMGCYRQARGKERELVAAISGSGGSTYYADSVKGRFTISRDNAKNTVYLQMNSLKPEDTAVYYCATGGGKTRSYNYWGKGTQVTVSS | high polyreactivity
QVQLVESGGGLVQAGGSLRLSCAASGSILYIYAMGWYRQAPGKVRELVAAITGSGGTTNYADSVKGRFTISRDNAKNTVYLQMNSLKPEDTAVYYCNIGSYYSCYDFWGQGTQVTVSS | low polyreactivity
QVQLVESGGGLVQSGGSLRLSCAASGNTFHSNAMGWYRQAPGKERELVAAITPSDGDTYYADSVKGRFTISRDNAKNTVYLQMNSLKPEDTAVYYCNARKQVYKIYYSDYRRYDYWGQGTQVTVSS | low polyreactivity
QVQLVESGGGLVQAGGSLRLSCAASGNIFPGYAMGWYRQAPGKERELVAGISGSGGRTYYADSVKGRFTISRDNAKITVYLQMNSLKPEDSAVYYCAAEFKYYYRFEYDYWGQGTQVTVSS | low polyreactivity
QVQLVESGGGLVQAGGSLRLSCAGSGSTFGGYAMGWYRQAPGKEWELVAAINSGGSTYYADSVKGRFTISRDNAKNTVYLQMNSLKPEDTAVYYCNADSQVIRDYIFDYWGQGTQVTVSS | low polyreactivity
QVQLVESGGGLVQAGGSLRLSCAASGSTFASNVMGWYRQAPGKERELVAAISRSGGNTYYADSVKGRFTISRDNAKNSVYLQMNSLKPEDTAVYYCAKYPFTRISYDYWGQGTQVTVSS | high polyreactivity
QVQIVESGGGLVQAGGSLRLSCAASGIIFDGYAMGWYRQAPGKERELVAGITIGDITYYADSVKGRFTISRDNAKITVYLQMNSLKPEDTAVYYCAADSYYYQTAYDYWGQGTQVTVSS | low polyreactivity
QFKLVESGGGLVQAGGSLRLSCAASGSTFKWNAMGWYRQAPGKERELVAAITSGGSTTYADSVKGRFTISRDNAKNTVYLQMNSLKPEDTAVYYCAAAYRRHYYGVYRFDYWGQGTQVTVSS | high polyreactivity
QVQLVESGGGLVQAGGSLRLSCAASGITFEGYAMGGYRQAPGKERELVAAIRSSGTSTYYADSVKGRFTISRDNAKNTVYLQMNSLKPEDTAVYYCNRARSSSLYDYWGQGTQVTVSS | low polyreactivity
QVQLQESGGGLVQAGGILRRSCAACGNIFPSAVMGWYRQALGKEREFVATINSGSNTYYADSVKGRFTISRDNAKNTVYLQMNSLKLEDTAVYYCAAYFKLPAWHTYWGQGTQVTVSS | low polyreactivity
QVQLQESGGGLEQAGGSLRLSCAASGYISDIGTMGWYRQAPAKEREFVATIVVGSTTNYADSVKGRFTISRDNAKNTVYLQPESGRYRGVLLSGWLLAVGKFTYWGQGTQETVSS | low polyreactivity
QVHLVESGGGLVQAGGSLRLSCAASGSIFRIYAMGWYRQAPGKERELVAAINAGGGRTYYADSVKGRFTISRDNAKNTVYLQMNSLKPEDNAVYFCAARHTEYRQESLYYWGQGTQVTVSS | low polyreactivity
QVQLVESGGGLVQAGGSLRLSCAASGSIFPWNAMGWYRQAPGKERELVAAISYSGTRTYYADSVKGRFTISRDNAKNTVYLQMNSLKPVDTAVYYCNARGYTRSYVKYDYWGQGTQVTVSS | high polyreactivity
QVQRVESGGGLVQAGGSLRLSCAASGLTFNNNAMGCYRQAPGTARELVAAISRTAVRTYYADSVKGRFTISRDNAKNTVYLQMNSLKPEDTAVYYCNGVSYYGGYPVTYDYWGQGTQVTVSS | high polyreactivity
